Among the data in article PMC6564026, “An autoinducer-independent RhlR quorum-sensing receptor enables analysis of RhlR regulation” are Kd values, retold here.

A word on the Kd: it is the constant that tells how readily two partners part at equilibrium.

For data set [1], the target named is MBP-RhlR:mBTL (Pseudomonas aeruginosa, UniProt P54292 1-241). Nature of the data set: ITC; mBTL; EMSA: 20 mM Tris-HCl pH 8, 50 mM KCl, 1 mM EDTA, 1 mM DTT, 1.5 mg/mL poly-IC, 50 ug/mL BSA, 10% glycerol, room temp 15 min; ITC: 25 C, S200 buffer (200 mM NaCl, 20 mM Tris-HCl pH 8, 1 mM DTT), 20 uM DNA titrated into 1 uM protein. As to conditions: protein: recombinant; tags: N-terminal MBP (pMALC2x); chain copies: 2; duplex not explicitly stated. In general terms: In ITC the heat of successive injections is recorded.

For data set [2], the target named is MBP-RhlR* (Pseudomonas aeruginosa, UniProt P54292 1-241, Y64F;W68F;V133F). Kind of data set: ITC; no ligand; EMSA: 20 mM Tris-HCl pH 8, 50 mM KCl, 1 mM EDTA, 1 mM DTT, 1.5 mg/mL poly-IC, 50 ug/mL BSA, 10% glycerol, room temp 15 min; ITC: 25 C, S200 buffer (200 mM NaCl, 20 mM Tris-HCl pH 8, 1 mM DTT), 20 uM DNA titrated into 1 uM protein. The following applies: protein: recombinant; tags: N-terminal MBP (pMALC2x); chain copies: 2; duplex not explicitly stated.

B1: rhl-box consensus (dsDNA)
DNA 1: ACCTGCCAGATTTCGCAGGT
DNA 2: ACCTGCGAAATCTGGCAGGT
Turning to B1, the dissociation constant (Kd) was 23 nM in data set [1] and 34 nM in data set [2].
